# Assay results as given in patent publication US20230070731A1, “COMPOSITIONS FOR SMALL MOLECULE CONTROL OF PRECISE BASE EDITING OF TARGET NUCLEIC ACIDS AND METHODS OF USE THEREOF” (THE TRUSTEES OF THE UNIVERSITY OF PENNSYLVANIA, priority 2020, published 2023).
# B1: AID*: hyperactive AID variant (K10E, F42E, T82I, D118A, R119G, K120R, A121R, H130A, R131E, F141Y, F145E, E156G) with N-terminal MBP tag (protein, UniProt Q9GZX7 1-198, looked up, variant K10E F42E T82I D118A R119G K120R A121R H130A R131E F141Y F145E E156G)
# Single-stranded DNA cytosine …: MDSLLMNRREFLYQFKNVRWAKGRRETYLCYVVKRRDSATSESLDFGYLRNKNGCHVELLFLRYISDWDLDPGRCYRVTWFISWSPCYDCARHVADFLRGNPNLSLRIFTARLYFCEAGRREPEGLRRLAEAGVQIAIMTYKDYEYCWNTFVENHGRTFKAWEGLHENSVRLSRQLRRILLPLYEVDDLRDAFRTLGL
# modifications: N-terminal MBP tag
# Tested on: BL21(DE3) E. coli
# Assay: Bacterial DNA deaminase rifampicin mutagenesis assay (acquired rifampin resistance)
# Assay type: cell-based
# Settings: expression in E. coli
# Procedure: In initial studies, a foreign protein/domain was inserted into an enhanced hyperactive version of AID described in U.S. patent application Ser. No. 16/025,261 (See for example, SEQ ID NO: 20 of the '261 patent application) which is incorporated herein by reference as though set forth in full. This mutant version of the human DNA deaminase AID, involved in antibody maturation was assessed and the loop regions which appeared to be tolerant to insertion of control elements (e.g., Green Fluorescent Protein GFP fragments) were identified as described hereinbelow. Several candidate locations for insertion were identified. We used an E. coli-based rifampin mutagenesis assay to evaluate activity (See Kohli et al., J Biol Chem. (2009) 284:pages 22898-904). In this assay we measure the activity level of a mutator by measuring how many E. coli can be turned resistant to the antibiotic rifampin when the enzyme is turned on.
# The mutation frequency of various DNA deaminases, including insertion constructs, were determined using a modified version of previously reported rifampin mutagenesis assay (Kohli, JBC 2009). […] The mutation frequencies were then calculated by the ratio of rifampicin resistant colonies to total population. […]
molecule,measurement,value
B1,Rif^R increase relative to catalytically inactive mutant AID(E58A),265 fold
